{"source": "patent US20120263728A1", "binders": {"B1": {"name": "CA167_01080 (antibody, from another filing, rabbit IgG1, V domains shown)", "VH": "QSLEESGGRLVTPETPLTLTCTASGIDLSKWPMTWVRQAPGKGLEWIGIIGRSGSTNYASWAKGRFTISKTSTTVDLKMTSPTTEDTATYFCARGGSYYDLWGQGTLVTVS", "VL": "AQVLTQTASPVSAAVGNTVTITCQSSQSVWKNNDLSWYQQKLGQPPKLLIYYASTLASGVSSRFKASGSGTQFTLTISDVQCDDAGTYYCVGSYDCSSADCNAFGGGTKVVVK"}, "B2": {"name": "CA167_00983 (antibody, from another filing, rabbit IgG1, V domains shown)", "VH": "QSVEESGGRLVTPGTPLTLTCTVSGFSLSNYAMSWVRQAPGKGLEWIGIIGKSGSTAYASWAKGRFTISRTSTTVDLEITSPTTEDTATYFCVRFVLLWGPGTLVTVS", "VL": "B1 VL with N17G, T22N, W30Y, S36A, L42P, A66G, Q72E, V80A, G86A, V91L"}, "B3": {"name": "CA167_00932 (antibody, from another filing, rabbit IgG1, V domains shown)", "VH": "QSLEESGGRLVTPGTPLTLTCTVSGFSLSRYWMSWVRQAPGKGLEWIGNIGGGSGSTLYAPWAKGRSTISKTSTTVDLKITSPTTEDTATYFCGRYVKNGGGYRLDLWGPGTLVTVS", "VL": "AAVLTQTPSSVSAAVGGTVTIKCQSSQSVYNNNEFSWYQQKPGQPPKLLIYDASKLASGVPSRFSGSGSGTQFTLTISGVQCDDVATYYCLGGYNDDTNRWAFGGGTEVVVE"}}, "key": {"[1]": {"target": "human Nav1.7 channel (type IX voltage-gated sodium channel alpha subunit) (human) (UniProt Q15858)", "experiment": "cell-based or functional assay"}, "[2]": {"target": "recombinant rat Nav1.7 channels expressed in HEK cells (rat) (UniProt O08562)", "sequence (O08562 whole entry)": "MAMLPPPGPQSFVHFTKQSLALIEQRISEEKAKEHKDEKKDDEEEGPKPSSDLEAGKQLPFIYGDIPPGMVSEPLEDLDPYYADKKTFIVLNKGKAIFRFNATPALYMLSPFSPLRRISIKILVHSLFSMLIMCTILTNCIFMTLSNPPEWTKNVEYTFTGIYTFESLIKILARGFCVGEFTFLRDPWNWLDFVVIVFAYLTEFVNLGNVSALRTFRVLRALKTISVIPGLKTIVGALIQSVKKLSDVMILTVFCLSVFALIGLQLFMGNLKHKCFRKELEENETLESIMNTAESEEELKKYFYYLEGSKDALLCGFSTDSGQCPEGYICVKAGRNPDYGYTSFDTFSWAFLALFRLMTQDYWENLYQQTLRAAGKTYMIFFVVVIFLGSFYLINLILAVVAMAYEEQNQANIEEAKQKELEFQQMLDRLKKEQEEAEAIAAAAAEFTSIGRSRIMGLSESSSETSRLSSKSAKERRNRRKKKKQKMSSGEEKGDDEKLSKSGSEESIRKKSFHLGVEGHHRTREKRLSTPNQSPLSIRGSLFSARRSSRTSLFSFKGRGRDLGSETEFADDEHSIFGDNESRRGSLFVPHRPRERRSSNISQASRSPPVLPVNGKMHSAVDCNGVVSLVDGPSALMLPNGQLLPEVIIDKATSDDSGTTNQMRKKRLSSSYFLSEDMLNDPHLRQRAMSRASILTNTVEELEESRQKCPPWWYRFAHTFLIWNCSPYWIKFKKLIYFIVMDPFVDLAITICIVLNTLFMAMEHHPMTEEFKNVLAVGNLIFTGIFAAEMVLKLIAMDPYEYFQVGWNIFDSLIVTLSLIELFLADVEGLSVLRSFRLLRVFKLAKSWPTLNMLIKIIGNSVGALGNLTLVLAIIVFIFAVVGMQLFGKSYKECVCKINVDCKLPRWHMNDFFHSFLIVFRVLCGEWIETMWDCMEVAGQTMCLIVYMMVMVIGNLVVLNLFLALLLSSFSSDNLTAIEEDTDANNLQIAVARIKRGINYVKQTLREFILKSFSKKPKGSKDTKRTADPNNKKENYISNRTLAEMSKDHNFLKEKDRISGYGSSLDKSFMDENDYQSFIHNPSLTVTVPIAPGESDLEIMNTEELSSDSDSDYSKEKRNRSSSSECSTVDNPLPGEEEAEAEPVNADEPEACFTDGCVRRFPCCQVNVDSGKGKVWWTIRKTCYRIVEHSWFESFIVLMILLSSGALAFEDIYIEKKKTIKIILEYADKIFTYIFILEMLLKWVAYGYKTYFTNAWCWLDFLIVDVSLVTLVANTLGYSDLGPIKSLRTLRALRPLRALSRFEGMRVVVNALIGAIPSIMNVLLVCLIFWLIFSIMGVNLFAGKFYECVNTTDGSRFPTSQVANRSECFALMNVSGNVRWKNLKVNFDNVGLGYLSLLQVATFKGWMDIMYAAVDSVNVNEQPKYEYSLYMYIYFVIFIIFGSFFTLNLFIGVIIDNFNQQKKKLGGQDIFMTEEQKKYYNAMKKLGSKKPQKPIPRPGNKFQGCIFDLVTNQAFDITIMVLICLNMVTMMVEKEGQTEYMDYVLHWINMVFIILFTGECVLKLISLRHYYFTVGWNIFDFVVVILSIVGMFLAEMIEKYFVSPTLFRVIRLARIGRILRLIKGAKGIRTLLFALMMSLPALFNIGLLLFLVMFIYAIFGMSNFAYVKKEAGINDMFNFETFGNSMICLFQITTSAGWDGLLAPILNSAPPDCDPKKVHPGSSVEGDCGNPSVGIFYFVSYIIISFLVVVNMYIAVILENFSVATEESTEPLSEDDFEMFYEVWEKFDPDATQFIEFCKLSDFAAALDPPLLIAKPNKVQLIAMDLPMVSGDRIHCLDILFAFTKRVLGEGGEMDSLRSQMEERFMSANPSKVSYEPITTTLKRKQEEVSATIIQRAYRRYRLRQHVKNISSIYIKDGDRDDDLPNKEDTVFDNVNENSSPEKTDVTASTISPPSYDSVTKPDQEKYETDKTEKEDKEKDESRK", "experiment": "cell-based or functional assay"}}, "note": "Substitutions are numbered along the chain they refer to."}
{"binder": "B1", "values": [{"measurement": "Nav1.7 inhibition (%) at 25 µg/ml, automated patch clamp on HEK cells", "setting": "[1]", "value": 46, "unit": "%"}, {"measurement": "inhibition of Nav1.7 currents at 25 µg/ml, automated Patch Clamp", "setting": "[2]", "value": 26, "unit": "%"}]}
{"binder": "B2", "values": [{"measurement": "Nav1.7 inhibition (%) at 25 µg/ml, automated patch clamp on HEK cells", "setting": "[1]", "value": 41, "unit": "%"}]}
{"binder": "B3", "values": [{"measurement": "Nav1.7 inhibition (%) at 25 µg/ml, automated patch clamp on HEK cells", "setting": "[1]", "value": 27, "unit": "%"}]}
